US20170267752A1 (Ablynx, published 2017)

Columns and labels:
biot-hTNFα = biot-hTNFα (human, UniProt P01375 77-233, biotinylated (site not stated)); experiment: competition ELISA according to Example 5 (assay not given)
Procedure: The SHIME model consists of five reactors which sequentially simulate the stomach (acid conditions and pepsin digestion), small intestine (digestive processes) and the 3 regions of the large intestine, i.e. the ascending (“A”), transverse (“T”) and descending colon (“D”) (microbial processes). […] All GI fluids were provided by ProDigest (Technologiepark 4, 9052 Zwijnaarde, Belgium). The anti-TNF Nanobodies were tested for a maximum period of 39 hours in the GI-fluids. After the incubation in the GI-fluids, stability of the Nanobodies was determined via functionality testing in a competition ELISA. The Nanobodies were tested at a fixed concentration of 100 μg/ml at 37° C. in 5 different GI fluids in the SHIMS model. At different time-points samples were taken and stored in the −20° C. with or without the addition of protease inhibitors, according to the schedule in Table 5.1. The samples were transferred to coated ELISA plates and subsequently tested in the competition ELISA. […] After blocking, a fixed concentration of 0.3 nM biot-hTNFα together with a titration series of the variants in the different GI fluids was added. Detection was performed with extravidin-HRP.

[1] = molecular target: membrane bound human TNF (mTNF), human TNF R77T/S78T variant on HEK293H-mTNF cells (human) (UniProt P01375); experiment: competition FACS on HEK293H-mTNF cells, competitor Enbrel at EC30 (0.02 nM)
[2] = molecular target: membrane bound human TNF (mTNF), human TNF R77T/S78T variant on HEK293H-mTNF cells (human) (UniProt P01375); experiment: competition FACS on HEK293H-mTNF cells, competitor Enbrel at EC90 (0.2 nM)

biot-hTNFα, sequence (P01375 77-233 limits assumed): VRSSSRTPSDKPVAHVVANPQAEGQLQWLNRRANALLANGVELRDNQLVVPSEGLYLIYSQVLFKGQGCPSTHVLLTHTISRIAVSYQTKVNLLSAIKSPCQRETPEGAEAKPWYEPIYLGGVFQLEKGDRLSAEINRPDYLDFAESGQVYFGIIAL
membrane bound human TNF (mTNF), human TNF R77T/S78T variant on HEK293H-mTNF cells (human), sequence (P01375 whole entry, stated change not applied): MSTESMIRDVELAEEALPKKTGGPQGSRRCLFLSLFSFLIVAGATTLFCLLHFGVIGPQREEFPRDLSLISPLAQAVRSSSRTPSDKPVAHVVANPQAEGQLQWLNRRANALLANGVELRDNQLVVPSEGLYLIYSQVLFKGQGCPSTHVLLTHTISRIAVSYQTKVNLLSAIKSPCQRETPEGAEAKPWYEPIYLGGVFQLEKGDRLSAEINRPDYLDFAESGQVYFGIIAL

Row | IC50 (biot-hTNFα) [nM] | IC50 [1] [nM] | IC50 [2] [nM] | fold increase of IC50 compared to 00021 (biot-hTNFα) [fold] | Binder
1 | 0.67 | 0.43 | 0.65 |  | A016600021 (VHH) VHH: DVQLVESGGGVVQPGGSLRLSCTASGFTFSTADMGWFRQAPGKGREFVARISGIDGTTYYDEPVKGRFTISRDNSKNTVYLQMNSLRPEDTALYYCRSPRYADQWSAYDYWGQGTLVTVSS
2 |  | 0.54 | 0.76 |  | A016600045 (VHH) VHH: DVQLVESGGGVVQPGGSLRLSCTASGFTFSTADMGWFRQAPGKGREFVARISGIDGTTYYDEPVKGRFTISRDNSKNTVYLQMNSLRPEDTALYYCRSPRYADQWSAHDYWGQGTLVTVSS
3 |  | 0.43 | 0.7 |  | A016600038 (VHH) VHH: DVQLVESGGGVVQPGGSLRLSCTASGFTFSTADMGWFRQAPGKGREFVARISGIDGTTYYDEPVKGRFTISRDNAKNTVYLQMNSLRPEDTALYYCRSPRYADQWSAYDYWGQGTLVTVSS
4 | 3.56 |  |  | 2 to 5 | A016600052 (VHH, S49C, I69C (intradomain disulfide) and Y100dL) VHH: DVQLVESGGGVVQPGGSLRLSCTASGFTFSTADMGWFRQAPGKGREFVCRISGIDGTTYYDEPVKGRFTCSRDNSKNTVYLQMNSLRPEDTALYYCRSPRYADQWSALDYWGQGTLVTVSS
5 | 1.13 |  |  | 2 to 5 | A016600046 (VHH, Y100dL substitution in CDR3; also called A016600046 100dL; A016600046 Y100dL) VHH: DVQLVESGGGVVQPGGSLRLSCTASGFTFSTADMGWFRQAPGKGREFVARISGIDGTTYYDEPVKGRFTISRDNSKNTVYLQMNSLRPEDTALYYCRSPRYADQWSALDYWGQGTLVTVSS
